Biological target: T1, CD206 on M2 macrophages derived from primary human PBMC (human (macrophages derived from primary …, UniProt P22897 19-1456))
T1 sequence (looked up): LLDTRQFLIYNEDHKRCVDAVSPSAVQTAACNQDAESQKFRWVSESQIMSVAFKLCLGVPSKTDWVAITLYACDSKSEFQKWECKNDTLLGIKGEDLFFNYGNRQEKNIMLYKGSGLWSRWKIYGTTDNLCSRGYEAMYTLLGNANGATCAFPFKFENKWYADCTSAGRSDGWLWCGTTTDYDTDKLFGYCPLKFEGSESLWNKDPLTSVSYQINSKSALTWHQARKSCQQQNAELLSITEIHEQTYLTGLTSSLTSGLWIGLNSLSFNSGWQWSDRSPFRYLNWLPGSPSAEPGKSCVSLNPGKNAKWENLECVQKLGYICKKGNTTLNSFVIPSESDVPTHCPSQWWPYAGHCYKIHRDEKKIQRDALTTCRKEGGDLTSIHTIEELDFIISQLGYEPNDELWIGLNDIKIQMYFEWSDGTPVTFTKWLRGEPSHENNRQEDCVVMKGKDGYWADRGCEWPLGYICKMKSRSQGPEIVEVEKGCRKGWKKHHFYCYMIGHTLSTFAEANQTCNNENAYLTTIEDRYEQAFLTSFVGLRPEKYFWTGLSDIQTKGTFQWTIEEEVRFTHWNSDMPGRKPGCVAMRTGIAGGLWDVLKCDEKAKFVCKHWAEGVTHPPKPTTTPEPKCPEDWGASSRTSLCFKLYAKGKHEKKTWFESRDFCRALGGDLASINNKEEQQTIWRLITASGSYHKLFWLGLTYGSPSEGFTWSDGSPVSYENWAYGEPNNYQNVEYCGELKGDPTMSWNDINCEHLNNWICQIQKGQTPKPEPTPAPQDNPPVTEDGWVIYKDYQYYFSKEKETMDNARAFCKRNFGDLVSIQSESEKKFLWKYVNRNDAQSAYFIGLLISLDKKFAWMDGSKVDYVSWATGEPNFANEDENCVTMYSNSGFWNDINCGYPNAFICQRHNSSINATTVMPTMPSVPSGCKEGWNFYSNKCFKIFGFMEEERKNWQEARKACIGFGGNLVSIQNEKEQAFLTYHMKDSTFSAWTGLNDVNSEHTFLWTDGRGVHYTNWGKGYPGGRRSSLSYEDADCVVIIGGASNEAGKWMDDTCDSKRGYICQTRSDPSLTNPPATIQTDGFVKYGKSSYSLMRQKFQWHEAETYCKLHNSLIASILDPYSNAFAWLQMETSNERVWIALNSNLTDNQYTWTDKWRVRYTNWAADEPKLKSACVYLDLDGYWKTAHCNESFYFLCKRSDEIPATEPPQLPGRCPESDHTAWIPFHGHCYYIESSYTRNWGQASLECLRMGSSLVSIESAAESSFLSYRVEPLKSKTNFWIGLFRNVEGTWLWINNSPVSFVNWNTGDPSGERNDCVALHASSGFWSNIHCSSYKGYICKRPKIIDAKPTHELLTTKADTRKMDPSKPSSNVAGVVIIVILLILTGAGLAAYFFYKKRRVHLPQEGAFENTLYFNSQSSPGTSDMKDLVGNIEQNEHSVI
Assay: cell-based or functional assay

B1: anti-CD206 VHH targeting moiety (aCD206 VHH), as DSPE-PEG2k-anti-CD206 VHH conjugate inserted into LNPs (VHH)
VHH: QVQLQESGGGLVQAGGSLRLSCAASGFTDDDYDIGWFRQAPGKEREGVSCISSSDGSTYYADSVKGRFTISSDNAKNTVYLQMNSLKPEDTAVYYCAADFFRWDSGSYYVRGCRHATYDYWGQGTQVTVSS
modifications: DSPE-PEG(2k)-maleimide covalently coupled to the thiol of a C-terminal cysteine residue
B1 was tested, and the “GFP protein expression (MFI of transfected macrophages), fold difference between non-targeted and aCD206 targeted LNPs; Lipid 19A” value was 11 fold and the “GFP protein expression (MFI of transfected macrophages), fold difference between non-targeted and aCD206 targeted LNPs; Lipids 15 and 46” value was 2 fold.

From patent US20250205169A1 (TIDAL THERAPEUTICS, published 2025)
